B1: recombinant Aspergillus fumigatus sedolisin SedB (tripeptidyl-peptidase), produced in Pichia pastoris (protein)
chain: TSTCDQVITPQCLKDLYNIGDYKADPNGGSKVAFASFLEEYARYDDLAKFEEKLAPYAIGQNFSVIQYNGGLNDQNSASDSGEANLDLQYIVGVSSPIPVTEFSTGGRGLLIPDLSQPDPNDNSNEPYLEFLQNVLKMDQDKLPQVISTSYGEDEQTIPEKYARSVCNLYAQLGSRGVSVIFSSGDSGVGAACLTNDGTNRTHFPPQFPAACPWVTSVGGTTKTQPEEAVYFSSGGFSDLWERPSWQDSAVKRYLKKLGPRYKGLYNPKGRAFPDVAAQAENYAVFDKGVLHQFDGTSCSAPAFSAIVALLNDARLRAHKPVMGFLNPWLYSKASKGFNDIVKGGSKGCDGRNRFGGTPNGSPVVPYASWNATDGWDPATGLGTPDFGKLLSLAMRR
B2: recombinant Aspergillus fumigatus prolyl protease AfuS28, His6-tagged, produced in Pichia pastoris (protein)
chain: LMPRAPLIPAMKAKVALPSGNATFEQYIDHNNPGLGTFPQRYWYNPEFWAGPGSPVLLFTPGESDAADYDGFLTNKTIVGRFAEEIGGAVILLEHRYWGASSPYPELTTETLQYLTLEQSIADLVHFAKTVNLPFDEIHSSNADNAPWVMTGGSYSGALAAWTASIAPGTFWAYHASSAPVQAIYDFWQYFVPVVEGMPKNCSKDLNRVVEYIDHVYESGDIERQQEIKEMFGLGALKHFDDFAAAITNGPWLWQDMNFVSGYSRFYKFCDAVENVTPGAKSVPGPEGVGLEKALQGYASWFNSTYLPGSCAEYKYWTDKDAVDCYDSYETNSPIYTDKAVNNTSNKQWTWFLCNEPLFYWQDGAPKDESTIVSRIVSAEYWQRQCHAYFPEVNGYTFGSANGKTAEDVNKWTKGWDLTNTTRLIWANGQFDPWRDASVSSKTRPGGPLQSTEQAPVHVIPGGFHCSDQWLVYGEANAGVQKVIDEEVAQIKAWVAEYPKYRKPHHHHHH

What was measured:
[1] = biological target: NPY 1-36 (neuropeptide Y)

BSA, P02769, sequence (P02769 25-607): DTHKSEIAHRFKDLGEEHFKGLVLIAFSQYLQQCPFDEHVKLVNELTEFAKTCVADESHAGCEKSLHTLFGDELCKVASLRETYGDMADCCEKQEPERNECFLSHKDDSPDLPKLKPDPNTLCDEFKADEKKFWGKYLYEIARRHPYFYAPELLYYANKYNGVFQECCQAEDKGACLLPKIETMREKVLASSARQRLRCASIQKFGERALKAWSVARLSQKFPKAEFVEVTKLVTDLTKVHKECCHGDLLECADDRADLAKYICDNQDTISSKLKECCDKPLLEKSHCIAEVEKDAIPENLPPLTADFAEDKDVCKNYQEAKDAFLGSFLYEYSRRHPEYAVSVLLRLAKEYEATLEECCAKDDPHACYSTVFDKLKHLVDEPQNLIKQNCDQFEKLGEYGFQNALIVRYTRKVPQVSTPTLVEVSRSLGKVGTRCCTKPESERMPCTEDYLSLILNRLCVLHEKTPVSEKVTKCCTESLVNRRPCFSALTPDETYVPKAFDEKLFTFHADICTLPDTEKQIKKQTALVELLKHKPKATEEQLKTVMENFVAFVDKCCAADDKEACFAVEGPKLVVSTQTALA

Protein	degradation of the peptide by AfuS28 + SedB together, 2 hours at 37 C, pH 4 and pH 8, mass spectrometry (33-mer of gliadin)	digestion of the peptide at acidic pH, mass spectrometry [1]	digestion of the peptide at acidic pH, mass spectrometry (NPY 3-36)	digestion of the peptide by AfuS28 and SedB added together, acidic pH, mass spectrometry (NPY 3-36)	proteolysis of a full length protein substrate (BSA, P02769)	degradation of the peptide, products detected by mass spectrometry [1]	degradation of the peptide, products detected by mass spectrometry (NPY 3-36)	full length NPY3-36 remaining after 15 min with 1.8 mU of enzyme at 37 C (degradation kinetics, mass spectrometry) (NPY 3-36)	degradation of the peptide, products detected by mass spectrometry (bradykinin (…))	endoproteolytic activity (release of label from resorufin-labeled casein) (resorufin-labeled casein)
B1	The enzyme composition AfuS28+SedB provides complete degradation of gliadin into several di-, tri-, tetra- and pentapeptides	this enzyme removed tripeptides (YPS, KPD and NPG) from the N-terminus of NPY1-36 until position 10	NPY3-36 was not digested by recombinant SedB	AfuS28 and SedB added together degraded NPY3-36 in Y, di- and tri-peptides	–	–	–	–	–	–
B2	The enzyme composition AfuS28+SedB provides complete degradation of gliadin into several di-, tri-, tetra- and pentapeptides	–	–	AfuS28 and SedB added together degraded NPY3-36 in Y, di- and tri-peptides	AfuS28 does not attack full length protein substrates such as resorufin-labeled casein and BSA	AfuS28 was also found to degrade NPY1-36 and NPY3-36, cleaving after proline residues	AfuS28 was also found to degrade NPY1-36 and NPY3-36, cleaving after proline residues	Less than 10% of full length NPY3-36 was still present after 15 min incubation	Digestion of bradykinin (RPPGFSPFR, SEQ ID NO:28) resulted in RPP, FR, GFSPFR (SEQ ID NO:35) and PGFSPFR (SEQ ID NO:36) fragments	Recombinant AfuS28 showed no detectable proteolytic activity using casein resorufin-labeled as a substrate
